Numbering of substitutions follows the chain as printed.
B1: mouse monoclonal antibody #23-57-137-1 against human PTHrP (1-34) (antibody, V domains shown)
VH: EVQLVESGGDLVKPGGSLKLSCAASGFTFSSYGMSWIRQTPDKRLEWVATISSGGSYTYYPDSVKGRFTISRDNAKNTLYLQMSSLKSEDTAMFYCARQTTMTYFAYWGQGTLVTVSA
VL: QLVLTQSSSASFSLGASAKLTCTLSSQHSTYTIEWYQQQPLKPPKYVMDLKQDGSHSTGDGIPDRFSGSSSGADRYLSISNIQPEDEAMYICGVGDTIKEQFVYVFGGGTKVTVLG
notes: Mouse antibody from the hybridoma (FERM BP-5631); mouse λ L-chain; tested as hybridoma culture supernatant
B2: humanized #23-57-137-1 antibody having L-chain version “s” (H-chain version “a”) (antibody, V domains shown)
VH: QVQLVESGGGVVQPGRSLRLSCAASGFTFSSYGMSWVRQAPGKGLEWVATISSGGSYTYYPDSVKGRFTISRDNSKNTLYLQMNSLRAEDTAVYYCARQTTMTYFAYWGQGTLVTVSS
VL: QLVLTQSPSASASLGASVKLTCTLSSQHSTYTIEWYQQQPEKGPKYVMDLKQDGSHSTGDGIPDRFSGSSSGAERYLTISSLQSEDEADYICGVGDTIKEQFVYVFGGGTKLTVLG
notes: also called hMBC1Lsλ
B3: mouse FR1,2/human FR3,4 hybrid antibody (L-chain m/hMBC1Ldλ, H-chain hMBC1HcDNA) (antibody, V domains shown)
VH: B2 VH
VL: QLVLTQSSSASFSLGASAKLTCTLSSQHSTYTIEWYQQQPLKPPKYVMDLKQDGSHSTGDGIPDRFSGSSSGAERYLTISSLQSEDEADYICGVGDTIKEQFVYVFGGGTKLTVL
notes: Human Cγ1 and human λ C-regions
B4: human FR1/mouse FR2,3,4 hybrid antibody (L-chain hmmMBC1L(λ), H-chain hMBC1HcDNA) (antibody, V domains shown)
VH: B2 VH
VL: B3 VL with S8P, F12A, A18V, E74D, T78S, S81N, L82I, S84P, D89M, L112V
notes: Human Cγ1 and human λ C-regions; also called FR1/FR2 hybrid antibody
B5: humanized #23-57-137-1 antibody having L-chain version “r” (H-chain version “a”) (antibody, V domains shown)
VH: B2 VH
VL: B2 VL with K45R, V47L
notes: also called hMBC1Lrλ
B6: antibody having both a humanized H-chain version “a” and a chimeric L-chain (antibody, V domains shown)
VH: B2 VH
VL: B1 VL
notes: Human Cγ1 H-chain C-region
B7: humanized #23-57-137-1 antibody having L-chain version “m” (H-chain version “a”) (antibody, V domains shown)
VH: B2 VH
VL: B2 VL with K45R, V47L, I91Y
notes: Human Cγ1 and human λ C-regions; also called hMBC1Lmλ
B8: humanized #23-57-137-1 antibody having L-chain version “o” (H-chain version “a”) (antibody, V domains shown)
VH: B2 VH
VL: B2 VL with K45R, I91Y
notes: Human Cγ1 and human λ C-regions; also called hMBC1Loλ
B9: humanized #23-57-137-1 antibody having L-chain version “t” (H-chain version “a”) (antibody, V domains shown)
VH: B2 VH
VL: B2 VL with K45R
notes: Human Cγ1 and human λ C-regions; also called hMBC1Ltλ
B10: mouse FR1,2/human FR3,4 hybrid antibody (L-chain m/hMBC1Laλ, H-chain hMBC1HcDNA) (antibody, V domains shown)
VH: B2 VH
VL: B3 VL with I91Y
notes: as for B3
B11: humanized #23-57-137-1 antibody having L-chain version “l” (H-chain version “a”) (antibody, V domains shown)
VH: B2 VH
VL: B2 VL with I91Y
notes: Human Cγ1 and human λ C-regions; also called hMBC1Llλ
B12: humanized #23-57-137-1 antibody having L-chain version “q” (H-chain version “a”) (antibody, V domains shown)
VH: B2 VH
VL: B2 VL with V47L
notes: Human Cγ1 and human λ C-regions; also called hMBC1Lqλ
B13: humanized #23-57-137-1 antibody having L-chain version “j” (H-chain version “a”) (antibody, V domains shown)
VH: B2 VH
VL: B2 VL with V47L, I91Y
notes: Human Cγ1 and human λ C-regions; also called hMBC1Ljλ
B14: chimeric #23-57-137-1 antibody with L-chain λ chain C-region (antibody, V domains shown)
VH: B1 VH
VL: B1 VL
notes: expressed in COS-7 cells; also called chimeric antibody; MBC1HcDNA/pCOS1 and MBC1L(λ)/neo
B15: chimeric #23-57-137-1 antibody with L-chain κ chain C-region (antibody, V domains shown)
VH: B1 VH
VL: B1 VL
notes: Mouse V-regions with human Cγ1 H-chain C-region and human κ C-region; expressed in COS-7 cells; also called chimeric antibody; MBC1HcDNA/pCOS1 and MBC1L(κ)/neo

target: T1, human PTHrP (1-34) (human); assay: solid phase RIA of hybridoma culture supernatants
T1 construct: Coated on ELISA plates (Peptide Research Institute) and used in RIA screening and the cAMP assay
Procedure: The screening of hybridomas was performed by determining the presence of PTHrP-recognition antibodies in the culture supernatant of the wells in which cell growth had been observed in HAT medium, by solid phase RIA method. The hybridomas were collected from the wells in which the binding ability to the PTHrP-recognition antibodies had been confirmed. The hybridomas thus obtained was suspended into RPMI-1640 medium containing 15% FCS supplemented with OPI-supplement (Sigma), followed by unification of the hybridomas by limiting dilution method.

Binding result, binds:
B1

target: T1, human PTHrP (1-34); assay: ELISA, plate coated with 1 µg/ml human PTHrP (1-34)
Procedure: An ELISA plate for the determination of antigen-binding ability was prepared as follows. Each well of a 96-well ELISA plate was coated with 100 μl of a coating buffer supplemented with 1 μg/ml of human PTHrP (1-34) (Peptide Research Institute), and then blocked with 200 μl of a dilution buffer. Each well was added with each of the serial dilutions of the COS-7 cell culture supernatant in which each of the chimeric antibodies had been expressed, or added with each of the serial dilutions of each of the chimeric antibodies per se in a purified form. After the plate was incubated at room temperature and washed with PBS-Tween 20, each well of the plate was added with 100 μl of a solution of alkaline phosphatase-conjugated goat anti-human IgG antibodies (TAGO). After the plate was incubated at room temperature and washed with PBS-Tween 20, each well of the plate was added with 1 mg/ml of a substrate solution (“Sigma 104”, p-nitrophenylphosphoric acid, SIGMA). The solution was measured on its absorbance at 405 nm using Microplate Reader (Bio Rad).
An ELISA plate for determining antigen-binding ability was prepared as follows. Each well of a 96-well ELISA plate (Maxisorp, NUNC) was coated with 100 μl of a coating buffer containing 1 μg/ml of human PTHrP (1-34) and then blocked with 200 μl of a dilution buffer. Subsequently, each well was added with each of the serial dilutions of the COS-7 cell culture supernatant in which each of the hybrid antibodies and humanized antibodies was expressed, or added with each of the serial dilutions of each of the hybrid antibodies and humanized antibodies in a purified form. The plate was incubated at room temperature and washed with PBS-Tween 20. Subsequently, each well was added with 100 μl of alkaline phosphatase-conjugated goat anti-human IgG antibody (TAGO). The plate was incubated at room temperature and washed with PBS-Tween 20. Subsequently, each well was added with 1 mg/ml of a substrate solution (“Sigma 104”, p-nitrophenylphosphoric acid, SIGMA). The solution was measured on its absorbance at 405 nm using Microplate Reader (Bio Rad).

Binding result, binds:
B2
B3
B4
B5
B6
B7
B8
B9
B10
B11
B12
B13
B14
B15
